From patent US7482016B2, “Immunogenic compositions comprising HIV-1 acetylated Tat polypeptides” (The J. David Gladstone Institutes, priority 2003, dated 2009)

Tests used:
[1] = test system: p300-dependent transcription of MyoD RNA; conditions: microinjected into nuclei of oocytes; cited from earlier work
[2] = test system: TAR-mutant LTR-luciferase, RSV LTR-luciferase, 5×UAS/Gal4-VP16, CMV-GFP, LTR alone in HeLa cells; test: Microinjection control experiments with Tat-independent reporters; assay type: cell-based
Description: Microinjection was performed at room temperature with a Zeiss automated injection system (Carl Zeiss, Oberkochen, Germany). Samples were prepared as a 20111 injection mix containing the luciferase reporter constructs (100 ng/ml) and CMV-GFP (50 ng/ml) constructs in sterile water or phosphate buffer. In individual experiments α-AcARM or preimmune immunoglobulins (5 mg/ml), Lys-CoA (8 μM) or synthetic Tat (30 μg/ml) were included in the mix. Four hours after injection, cells were examined on a Zeiss Axiovert microscope to determine the number of GFP-positive cells, washed in cold phosphate buffer and stored at −70° C. for luciferase assays (Promega).
A GFP-expressing construct (CMV-GFP) was coinjected to count the number of injected cells before analysis of luciferase activity.

[3] = test system: Tat transactivation of the HIV LTR in HeLa-Tat cells; test: Nuclear microinjection of HIV LTR-luciferase reporter, Tat transactivation; assay type: cell-based; conditions: 8 μM solution microinjected into HeLa-Tat cells, three independent experiments
Description: Microinjection experiments were previously described (Dorr et al. (2002), supra). Microinjection was performed at room temperature with a Zeiss automated injection system (Carl Zeiss, Oberkochen, Germany). Samples were prepared as a […] injection mix containing the luciferase reporter constructs (100 ng/ml) and CMV-GFP (50 ng/ml) constructs in sterile water or phosphate buffer. In individual experiments α-AcARM or preimmune immunoglobulins (5 mg/ml), Lys-CoA (8 μM) or synthetic Tat (30 μg/ml) were included in the mix. Four hours after injection, cells were examined on a Zeiss Axiovert microscope to determine the number of GFP-positive cells, washed in cold phosphate buffer and stored at −70° C. for luciferase assays (Promega). The α-p24 monoclonal antibody (183-H12-5C) was used in control microinjections with α-AcARM mAbs and was obtained through the AIDS Research and Reference Reagent Program, NIH (Chesebro et al. (1992) J Virol 66, 6547-6554). […]
FIGS. 3A-D. (FIG. 3A) Microinjection of the p300-HAT inhibitor Lys-CoA (8 μM), HIV LTR-luciferase and CMV-GFP into HeLa or HeLa-Tat cells. Each value is expressed as a percentage of the value obtained in control cells, injected with LTR-luciferase and CMV-GFP alone. […]

[4] = test system: Jurkat T cells expressing FLAG-tagged Tat from the HIV LTR; test: Western blot of lysates of Jurkat T cells expressing FLAG-tagged Tat after TSA; assay type: cell-based; conditions: 400 nM TSA, 16 hours
Description: Immunoglobulin G were purified on Gammabind Plus Sepharose (Amersham).
Next, cellular extracts were analyzed with anti-AcARM antibodies. A cell line was generated that constitutively expressed a FLAG-tagged Tat protein from the HIV LTR by transducing Jurkat T cells with a Tat-encoding lentiviral vector (Jordan et al., 2001, supra). Following treatment with trichostatin A (TSA), a specific inhibitor of cellular HDACs, AcTat was detected by western blot analysis with anti-AcARM mAbs in cells expressing Tat, but not in control cells expressing GFP (FIG. 1D). To enhance the signal, immunoprecipitation was performed with anti-FLAG monoclonal antibodies before western blot analysis. Again, AcTat was detected in Tat-expressing, but not in GFP control cells (FIG. 1E). Expression of AcTat was enhanced when cells were treated with TSA.

RNAPII = biological target: T1, RNAPII (Homo sapiens, UniProt P24928); test: RNA polymerase II binding in 293 nuclear extracts; conditions: biotinylated proteins
T1 construct: analyzed with modification-specific antibodies directed against the CTD of RNAPII; endogenous in cells; host or cells: 293 nuclear extract
Description: Synthetic biotinylated nonacetylated and acetylated Tat proteins were incubated for 2 hours with 50 μl 293 nuclear extracts prepared according to (Dignam et al. (1983) Methods Enzymol. 101, 582-598) in buffer conditions described in (Mavankal et al., (1996) Proc. Natl. Acad. Sci. USA 93, 2089-2094). Complexes were collected with streptavidin-sepharose beads, separated by SDS-PAGE electrophoresis and analyzed with α-RNAPII antibodies (clones H14 and 8WG16; CPR Inc) or with α-AcARM mAbs and HRP-conjugated Streptavidin (Jackson Immunoresearch Laboratories).
(§1) FIGS. 4A-D. (FIG. 4A) Bulge-dependent binding of Tat to TAR. Radiolabeled riboprobes corresponding to the HIV TAR element or a mutated form (TARΔBulge) were incubated with 0, 40, 80 and 160 ng of Tat and analyzed on a 4% Tris-glycine gel. (FIG. 4B) High-affinity binding of AcTat to TAR RNA, but […]. The wild-type TAR probe was incubated with increasing amounts of synthetic Tat or AcTat (0, 1.6 ng, 8 ng, 40 ng, and 200 ng) in the absence or presence of recombinant CyclinT1. The same experiment with a mutated TAR RNA probe containing mutations in the apical loop is shown below (TARΔLoop). (FIG. 4C) Binding of AcTat to CyclinT1 in the absence of TAR. Increasing amounts (0, 0.5 μg, 1 μg, and 2 μg) of Tat or AcTat were incubated with GST-CyclinT1, Tat-binding-deficient GST-CyclinT1 (C261A) or GST alone. Bound proteins were analyzed with monoclonal anti-Tat antibodies, directed against the N-terminus of Tat. 50% of input Tat proteins are shown. (FIG. 4D) Binding of Tat and AcTat to RNAPII. Biotinylated Tat or AcTat proteins (0, 1, 2, 4, 8 μg) were incubated with nuclear extracts, precipitated with streptavidin-sepharose and analyzed with modification-specific antibodies directed against the CTD of RNAPII. AcTat was detected with monoclonal anti-AcARM antibodies. Both Tat proteins reacted with horseradish peroxidase-conjugated streptavidin (SA-HRP).

GST-CyclinT1 [5] = biological target: T2, GST-CyclinT1 (Homo sapiens, UniProt O60563); test: GST binding (pulldown) assay; conditions: absence of TAR
T2 construct: Full-length GST-CyclinT1, GST-CyclinT1C261A or GST alone were expressed in the BL21 strain of Escherichia coli; made in house; host or cells: Escherichia coli BL21
Description: (§2) Full-length GST-CyclinT1, GST-CyclinT1C261A or GST alone were expressed in the BL21 strain of Escherichia coli and purified on glutathione-Sepharose beads (Amersham Pharmacia Biotech) as described (Herrmann and Rice (1993) Virology 197, 601-608). For binding assays ˜1 μg of bead-coupled GST-CyclinT1, GST-CyclinT1C261A or GST alone was incubated with Tat and AcTat in 100 μl modified Buffer C for 3.5 hr at 4°. Buffer C is described in (Fujinaga et al. (1999) Proc. Natl. Acad. Sci. USA 96, 1285-1290) and was used without ZnCl2 and SDS. Beads were washed three times with modified Buffer C containing 1M KCl, boiled in Laemmli buffer and supernatant was analyzed by immunoblotting using monoclonal anti-Tat antibodies (clone AC11.AE12; CPR Inc.).
as §1

GST-CyclinT1 [6] = biological target: T3, GST-CyclinT1 (Homo sapiens, UniProt O60563, C261A); test: GST binding (pulldown) assay
T3 construct: Full-length GST-CyclinT1, GST-CyclinT1C261A or GST alone were expressed in the BL21 strain of Escherichia coli; made in house; host or cells: Escherichia coli BL21
Description: as §2, §1

HIV TAR RNA = test: RNA gel mobility shift assay; assay type: binding; conditions: for effect of mutations in the loop of TAR on binding: TARΔLoop probe; for binding to wild-type TAR RNA: absence of CyclinT1; for effect of addition of CyclinT1 on affinity for wild-type TAR RNA: recombinant CyclinT1 present
Description: (§3) TAR RNAs were synthesized from HindIII-linearized pGEM3Zf-TAR constructs, which contained an oligonucleotide corresponding to the HIVLAI TAR sequence (nucleotides +17 to +44) ligated into the EcoR1-HindIII cloning sites, downstream of the T7 RNA polymerase start site. In the TARΔbulge construct, thymidine 23 was replaced with an adenosine, and the TARΔloop construct contained C30→A, T31→G, and G33→T mutation. In vitro transcription reactions were performed with the Riboprobe system (Promega, Madison, Wis.) with 1 μg of linearized plasmids and 50 μCi of ^32P-CTP (20 μCi/μl; Amersham Pharmacia Biotech). Transcripts were treated with 2 U DNAse I (Promega), extracted with a phenol:chloroform mixture, and purified over a Nick column (Amersham Pharmacia Biotech). Gel mobility reactions (final volume, 16 μl) were carried out at 30° C. as described (Wei et al. (1998) Cell 92, 451-462) with 2×10^4 cpm TAR probes/reaction with indicated concentrations of Tat proteins and 160 ng of GST-cleaved CyclinT1 (amino acids 1-303) (Garber et al. (1998) Curr Opin Immunol 11, 460-465). RNA-binding complexes were separated on a pre-run 4% Tris-glycine gel.
as §1

Tat/TAR/CyclinT1 complex = biological target: T4, Tat/TAR/CyclinT1 complex (Homo sapiens, UniProt O60563); test: RNA gel shift with recombinant CyclinT1, ternary complex formation; assay type: binding; conditions: presence of CyclinT1
T4 construct: 160 ng of GST-cleaved CyclinT1 (amino acids 1-303); GST (N, cleaved yes); made in house
Description: as §3, with “Gel mobility reactions (final volume, 16 μl) were carried out at 30° C. as described (Wei et al. (1998) Cell 92, 451-462) with 2×10^4 cpm TAR probes/reaction with indicated concentrations of Tat proteins and 160 ng of GST-cleaved CyclinT1 (amino acids 1-303) (Garber et al. (1998) Curr Opin Immunol 11, 460-465). RNA-binding complexes were separated on a pre-run 4% Tris-glycine gel.” left out
FIGS. 4A-D. (FIG. 4A) Bulge-dependent binding of Tat to TAR. Radiolabeled riboprobes corresponding to the HIV TAR element or a mutated form (TARΔBulge) were incubated with 0, 40, 80 and 160 ng of Tat and analyzed on a 4% Tris-glycine gel. […] Bound proteins were analyzed with monoclonal anti-Tat antibodies, directed against the N-terminus of Tat. […] Biotinylated Tat or AcTat proteins (0, 1, 2, 4, 8 μg) were incubated with nuclear extracts, precipitated with streptavidin-sepharose and analyzed with modification-specific antibodies directed against the CTD of RNAPII. AcTat was detected with monoclonal anti-AcARM antibodies. […]

T4 sequence (O60563 1-303, one chain of several): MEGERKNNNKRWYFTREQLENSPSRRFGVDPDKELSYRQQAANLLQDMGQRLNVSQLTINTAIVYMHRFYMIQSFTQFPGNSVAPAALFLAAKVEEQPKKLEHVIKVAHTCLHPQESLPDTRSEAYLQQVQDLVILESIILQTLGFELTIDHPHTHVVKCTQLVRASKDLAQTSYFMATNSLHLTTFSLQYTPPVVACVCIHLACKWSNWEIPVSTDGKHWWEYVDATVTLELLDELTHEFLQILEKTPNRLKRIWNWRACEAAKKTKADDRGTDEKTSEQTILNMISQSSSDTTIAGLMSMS
T3 sequence (O60563 whole entry C261A): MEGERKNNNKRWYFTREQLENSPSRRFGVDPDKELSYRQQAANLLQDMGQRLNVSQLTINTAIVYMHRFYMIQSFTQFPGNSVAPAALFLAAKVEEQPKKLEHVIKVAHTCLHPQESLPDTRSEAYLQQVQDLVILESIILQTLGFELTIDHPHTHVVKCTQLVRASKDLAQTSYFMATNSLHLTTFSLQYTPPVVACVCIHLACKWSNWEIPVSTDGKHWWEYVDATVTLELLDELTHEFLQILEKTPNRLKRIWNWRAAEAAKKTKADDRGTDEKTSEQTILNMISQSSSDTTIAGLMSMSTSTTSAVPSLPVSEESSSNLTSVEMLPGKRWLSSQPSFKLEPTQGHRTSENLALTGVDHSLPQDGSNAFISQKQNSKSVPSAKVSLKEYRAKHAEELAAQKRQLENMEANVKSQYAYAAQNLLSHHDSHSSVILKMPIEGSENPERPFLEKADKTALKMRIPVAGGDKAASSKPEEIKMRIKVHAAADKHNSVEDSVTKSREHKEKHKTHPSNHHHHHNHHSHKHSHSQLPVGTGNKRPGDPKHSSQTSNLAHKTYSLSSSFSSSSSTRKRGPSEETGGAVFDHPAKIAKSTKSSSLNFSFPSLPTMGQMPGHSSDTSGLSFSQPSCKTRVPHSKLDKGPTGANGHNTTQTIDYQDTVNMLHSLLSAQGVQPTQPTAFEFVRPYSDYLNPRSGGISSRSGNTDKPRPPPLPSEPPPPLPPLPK
T2 sequence (O60563 whole entry): as the sequence (O60563 whole entry C261A) above, with A261C counted along it

| Molecule | p300-dependent transcription of MyoD RNA [1] | effect on the LTR alone ([2]; coinjected into HeLa cells (no Tat)) | effect on coinjected CMV-GFP reporter ([2]; same concentration (8 μM)) | inhibition of Tat activity on the HIV LTR [3] | Tat expression (anti-FLAG immunodetection) [4] | expression of AcTat ([4]; anti-FLAG immunoprecipitation, anti-AcARM blot) | binding to nonphosphorylated RNAPII (RNAPII) | binding to wild-type GST-CyclinT1 (GST-CyclinT1 [5]) | binding to mutant CyclinT1 (C261A) or GST alone (GST-CyclinT1 [6]) | binding to bulge-mutant TAR RNA (HIV TAR RNA; TARΔBulge probe) | effect of mutations in the loop of TAR on binding (HIV TAR RNA) | binding to wild-type TAR RNA (HIV TAR RNA) | effect of addition of CyclinT1 on affinity for wild-type TAR RNA (HIV TAR RNA) | formation of the Tat/TAR/CyclinT1 ternary complex (Tat/TAR/CyclinT1 complex) | interaction with hyperphosphorylated RNAPII complex (RNAPII) | concentration at which retarded bands form, relative to unacetylated Tat (HIV TAR RNA; wild-type TAR probe) |
| --- | --- | --- | --- | --- | --- | --- | --- | --- | --- | --- | --- | --- | --- | --- | --- | --- |
| CC(=O)N[C@@H](CCCCNC(=O)CSCCNC(=O)CCNC(=O)[C@H](O)C(C)(C)COP(=O)(O)OP(=O)(O)OC[C@H]1O[C@@H](n2cnc3c(N)ncnc32)[C@H](O)[C@@H]1OP(=O)(O)O)C(N)=O [Lys-CoA] | efficiently blocked | no effect | no effect | 60-70% |  |  |  |  |  |  |  |  |  |  |  |  |
| CC(/C=C/C(=O)NO)=C\[C@@H](C)C(=O)c1ccc(N(C)C)cc1 [TSA, trichostatin A] |  |  |  |  | overall upregulation | enhanced |  |  |  |  |  |  |  |  |  |  |
| Tat: synthetic unacetylated 72-amino acid Tat, sequence derived from isolate HIV-1BRU (peptide) MEPVDPRLEPWKHPGSQPKTACTTCYCKKCCFHCQVCFTTKALGISYGRKKRRQRRRPPQGSQTHQVSLSKQ |  |  |  |  |  |  | no binding | equal affinities | Neither Tat nor AcTat bound | blocked | little effect | high affinity | did not alter | formed the expected Tat/TAR/CyclinT1 complex |  |  |
| AcTat: synthetic Tat protein (HIV-1BRU sequence, 72 amino acids) containing a single acetylated lysine at position 50 (peptide) MEPVDPRLEPWKHPGSQPKTACTTCYCKKCCFHCQVCFTTKALGISYGRKKRRQRRRPPQGSQTHQVSLSKQ |  |  |  |  |  |  | no binding | equal affinities | Neither Tat nor AcTat bound |  | little effect | affinities equal to that of unacetylated Tat | did not alter | could not | higher affinity than Tat | one-third |
